Here are results for 1 molecule from PMC3695512, “Recognition of two distinct elements in the RNA substrate by the RNA-binding domain of the T. thermophilus DEAD box helicase Hera”.

One series has as its target T1, Hera full-length (Thermus thermophilus, UniProt O07897 1-510).
T1 sequence: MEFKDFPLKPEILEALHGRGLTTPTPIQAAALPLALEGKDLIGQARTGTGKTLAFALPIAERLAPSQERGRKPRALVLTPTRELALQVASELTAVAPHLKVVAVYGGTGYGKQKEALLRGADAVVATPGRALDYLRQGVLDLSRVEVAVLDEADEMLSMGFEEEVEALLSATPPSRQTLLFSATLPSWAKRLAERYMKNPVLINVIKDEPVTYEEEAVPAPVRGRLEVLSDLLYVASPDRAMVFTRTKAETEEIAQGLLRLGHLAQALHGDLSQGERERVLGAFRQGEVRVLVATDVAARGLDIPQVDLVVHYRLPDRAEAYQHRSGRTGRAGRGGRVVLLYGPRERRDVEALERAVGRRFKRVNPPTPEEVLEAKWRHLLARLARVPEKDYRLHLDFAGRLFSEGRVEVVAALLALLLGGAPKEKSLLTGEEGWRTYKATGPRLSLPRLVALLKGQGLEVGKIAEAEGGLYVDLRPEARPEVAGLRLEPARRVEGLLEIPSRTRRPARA
In words: fluorescence anisotropy; no ATP; 5 mM Mg2+; Anisotropy: 50 mM Tris/HCl pH 7.5, 150 mM NaCl, 5 mM MgCl2 (Fig 2), 25 C, 50 nM RNA; EMSA: same Tris/NaCl, 12% glycerol, 25 C; NMR: 25 mM Bis-Tris/HCl pH 6.0, 50 mM NaCl, 10% D2O, 37 C. The note with it: protein: recombinant; chain copies: 2; label: 5'-fluorescein; hairpin with 5' single strand.

For series [1], the target named is T2, GST-Hera_RBD (Thermus thermophilus, UniProt O07897 424-510).
T2 sequence: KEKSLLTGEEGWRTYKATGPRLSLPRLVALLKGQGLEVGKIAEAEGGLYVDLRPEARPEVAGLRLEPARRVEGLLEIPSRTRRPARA
Described as above. The note with it: protein: recombinant; tags: N-terminal GST; label: 5'-fluorescein; hairpin with 5' single strand.

For a further series, the target named is T3, Hera_core (Thermus thermophilus, UniProt O07897 1-369).
T3 sequence: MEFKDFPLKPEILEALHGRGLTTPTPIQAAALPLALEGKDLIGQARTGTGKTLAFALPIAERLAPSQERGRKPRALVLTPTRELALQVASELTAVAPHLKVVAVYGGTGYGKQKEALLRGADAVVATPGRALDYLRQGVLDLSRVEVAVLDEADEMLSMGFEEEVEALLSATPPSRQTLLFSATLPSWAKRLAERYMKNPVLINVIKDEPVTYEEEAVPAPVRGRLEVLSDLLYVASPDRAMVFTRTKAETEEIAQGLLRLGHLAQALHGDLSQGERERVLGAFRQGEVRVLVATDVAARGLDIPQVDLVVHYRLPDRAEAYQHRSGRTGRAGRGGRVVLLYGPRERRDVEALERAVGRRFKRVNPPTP
The description is as above. The note with it: protein: recombinant; label: 5'-fluorescein; hairpin with 5' single strand.

The target of series [2] is T2, GST-Hera_RBD. In words: EMSA; 6 uM RNA; 12% glycerol; Anisotropy: 50 mM Tris/HCl pH 7.5, 150 mM NaCl, 5 mM MgCl2 (Fig 2), 25 C, 50 nM RNA; EMSA: same Tris/NaCl, 12% glycerol, 25 C; NMR: 25 mM Bis-Tris/HCl pH 6.0, 50 mM NaCl, 10% D2O, 37 C. The note with it: protein: recombinant; tags: N-terminal GST; label: 5'-fluorescein; hairpin with 5' single strand. (In general: In EMSA bound probe runs differently from free probe, usually more slowly.)

As to GCAGGUCCCAAGGGUUGGGCUGUUCGCCCAUU (structured_RNA) [32mer], the Kd in the series with Hera full-length was 130 ± 70 nM; with GST-Hera_RBD [1], 450 ± 36 nM; in the series with Hera_core it was 1000 ± 180 nM; in the series with GST-Hera_RBD [2], roughly 7000 nM.

Broadly, the Kd is the constant that tells how readily two partners part at equilibrium.
